Source: paper PMC7480041 (bioRxiv, 2020)

Target: truncated recombinant SARS-CoV-2 nucleocapsid (N) protein, AA133–419 (SARS-CoV-2 (isolate USA-WA1/2020), UniProt P0DTC9)
Assay: ELISA

B1: mBG21 (antibody, V domains shown)
VH: QIQLVQSGPELKKPGETVKISCKASGYTFTDYSMHWVKQAPGKGSKWMGWINTETGEPTYADDFKGRFAFSLETSASTAYLQINNLKNEDTATYFCALRRWGQGTLVTVSS
VL: IVMTQTPKFLLVSAGDRVTITCKASQSVSNDVAWFQQKPGQSPKKLLIYFASNRYTGVPDRFTGSGYGTDFTFTITTVQAEDLAVYFCQQDYSSPWTFGGGTKLEIK
corrected average ELISA signal: 1.43
